# Measurements reported in patent publication US20140037661A1, “Wheat Antigens and Peptides for Diagnosis of Wheat Induced Hypersensitivity” (PHADIA AB, priority 2011, published 2014).
# Tests used:
# [1] = test system: serum IgA of celiac disease patients; assay: IgA reactivity ELISA to wheat food antigens; assay type: binding, human; conditions: 5 μg/ml coated, sera 1:100, read at 405 nm, FIG. 15
# Protocol: 100 μl of the wheat proteins GG1 (Gamma gliadin 1), GG2 (Gamma gliadin 2), α-purothionin, GluB3-23, C-175, Mal 82 and Mal 43 of a concentration of 5 μg/ml were coated overnight at 4° C. onto Nunc Maxisorp Elisa plates. The remaining free binding sites were blocked with 1% BSA in PBST for 2 hours at room temperature. 100 μl of sera from celiac disease patients, celiac patients on diet and negative controls were added at a dilution of 1:100 in 0.5% BSA in PBST buffer and incubated for 12 hours at 4° C. The plates were washed 5 times in PBST buffer and 100 μl of mouse anti-human IgA1/A2 (BD Biosciences) diluted to 1:1000 in 0.5% BSA/PBST buffer was added and incubated at room temperature for 5 hours. The plates were then washed 5 times with PBST and 100 μl of sheep anti-mouse IgG conjugated with Horse radish peroxidise (HRP) (Amersham) antibodies were added and incubated at 37° C. for one hour.
# [2] = test system: serum IgE antibodies from patients suffering from wheat food allergy; assay: IgE reactivity dot blot with sera from wheat food allergic patients; assay type: binding, human; conditions: for patients reacting to the recombinant protein (IgE): FIG. 12; for patients showing IgE reactivity: 0.5 μg dotted protein, sera 1:10
# Protocol: GluB3-23 is a major allergen in wheat dependent food allergy IgE reactivity of wheat food allergic patients to GluB3-23 and C175 was tested by dot blot analysis shown in FIG. 10 and FIG. 11. 0.5 μg of purified recombinant proteins (GluB3-23 and C175), 2 μg aqueous wheat seed (WSE) extract and 0.5 μg of human serum albumin (HSA) were dotted onto nitrocellulose (Whatman Protran nitrocellulose membrane, Sigma Aldrich) strips and after blocking with buffer A (50 mM sodium phosphate buffer, pH7.4, 0.5% w/v BSA, 0.5% v/v Tween-20, 0.05% w/v NaN3) incubated with 1:10 diluted sera from patients suffering from wheat food allergy. Bound IgE Abs were detected with 1:10 diluted ^125I labeled anti human IgE Abs and visualized by autoradiography.
# Sera were obtained from populations of patients suffering from wheat food allergy. Patients were selected according to positive case history, positive Skin Prick Test (SPT), double blind or open food challenge or CAP-test (Phadia, Uppsala, Sweden) to wheat.
# The recombinant high molecular weight proteins mal43 and mal82, representing partial proteins of Glu-B1, were tested in dot blots with sera from patients from a population shown in FIG. 11. Sera were obtained from patients suffering from wheat food allergy. Patients were selected according to positive case history and positive Skin Prick Test (SPT) or CAP-test (Phadia, Uppsala, Sweden) to wheat. 0.5 μg of purified recombinant proteins (mal43 and mal82), 2 μg aqueous wheat seed (WSE) extract and 0.5 μg of human serum albumin (HSA) were dotted onto nitrocellulose (Whatman Protran nitrocellulose membrane, Sigma Aldrich) strips and after blocking with buffer A incubated with 1:10 diluted patients sera. Bound IgE Abs were detected with 1:10 diluted ^125I labeled anti human IgE Abs and visualized by autoradiography. […] On the basis of WHO/IRIS Allergen Standardization Committee definition (www.allergen.org), an allergen recognized by 10% of the patients is a minor allergen.
# The IgE reactivity of dot-blotted recombinant wheat α-purothionin was tested with serum IgE antibodies from patients suffering from wheat food allergy (Table 3). […] 23% of patients from one population (n=13) and 29% of the patients from another population (n=24) reacted to the recombinant α-purothionin. (FIG. 12).
# IgE binding to GluB3-23 = assay: IgE inhibition dot blot (sera pre-incubated with recombinant protein); design: species or system human
# Protocol: An inhibition dot blot was performed with patients' sera. […] Bound IgE Abs were detected with ^125I-labelled anti human IgE Abs and visualized by autoradiography, the dot intensity was measured by a gamma counter.
# [3] = serum Pat 3, pre-incubated with 10 μg protein
# [4] = serum Pat 8, pre-incubated with 10 μg protein
# [5] = serum Pat 10, pre-incubated with 10 μg protein
# [6] = serum Pat 11, pre-incubated with 10 μg protein
# [7] = serum Pat 12, pre-incubated with 10 μg protein
# [8] = another wheat food allergy patient population, FIG. 11
Molecule,IgA reactivity [1],"bound IgE, dot intensity by gamma counter (IgE binding to GluB3-23; [3])","bound IgE, dot intensity by gamma counter (IgE binding to GluB3-23; [5])","bound IgE, dot intensity by gamma counter (IgE binding to GluB3-23; [6])","bound IgE, dot intensity by gamma counter (IgE binding to GluB3-23; [7])","patients showing IgE reactivity [2, 8]",also measured
"α-purothionin: clone 84-derived wheat allergen expressed as recombinant protein with C-terminal hexahistidine tag in E. coli (protein, listed as Triticum aestivum, C-terminal His6 tag, clone 84-derived wheat allergen expressed as recombinant protein with C-terminal hexahistidine tag in E. coli) LSSGLSCPKGFPKLALESNSDEPDTIEYCNLGCRSSVCDYMVNAAADDEEMKLYVENCADACVSFCNGDAGLPSLDAY",negative,,,,,,patients reacting to the recombinant protein (IgE) ([2]; another population (n=24)): 29%; patients reacting to the recombinant protein (IgE) ([2]; one population (n=13)): 23%
"GluB3-23: recombinant full length s-LMW glutenin GluB3-23 of wheat without signal peptide, plus hexa-histidine tag (protein) MKTFLIFALLAIVATSAIAQMENSHIPGLERPSQQQPLPPQQTLSHHQQQQPIQQQPQPFSQQQPCSQQQQQPLSQQQQPPFSQQQPPFSQQQQQPLSQQQQPPFSQQQPPFSQQQQPPFSQQQPPFSQQQQPVLPQQPSFSQQQLPPFSQQQSPFSQQQQIVLQQQPPFLQQQQPSLPQQPPFSQQQQQLVLPQQQIPFVHPSILQQLNPCKVFLQQQCSPVAMPQSLARSQMLQQSSCHVMQQQCCQQLPQIPQQSRYEAIRAIIYSIILQEQQQVQGSIQTPQQQPQQLGQCVSQPQQQSQQQLGQQPQQQQLAQGTFLQPHQIAQLEVMTSIALRTLPTMCRVNVPLYRTTTSVPFGVGTGVGSYHHHHHH",moderate,326.0 cpm,36.0 cpm,58.9 cpm,17.7 cpm,80.8%,"% inhibition of IgE binding (IgE binding to GluB3-23; [3]): 63.3%; % inhibition of IgE binding (IgE binding to GluB3-23; [4]): 100.0%; bound IgE, dot intensity by gamma counter (IgE binding to GluB3-23; [4]): 31.5 cpm; % inhibition of IgE binding (IgE binding to GluB3-23; [5]): 100.0%; % inhibition of IgE binding (IgE binding to GluB3-23; [6]): 93.8%; patients showing IgE reactivity ([2]; wheat food allergy patient population of FIG. 10): 54.5%"
"mal82: recombinant MBP fusion with part of repetitive region and C-terminal non repetitive region of Glu-B1, hexa-histidine tag (protein, left off: large carriers) PTSPQQSGQGQQGYYPTSPQQSGQGQQGYYPTSPQQSGQGQQPGQGQQPRQGQQGYYPISPQQSGQGQQPGQGQQRYYPTSPQQSGQGQQPGHEQQPGQWLQPGQGQQGYYPTSSQQSGQGHQSGQGQQGYYPTSLWQPGQGQQPGQGQQGYASPYHVSAEYQAARLKVAKAQQLAAQLPAMCRLEGSDALSTRQHHHHHH",moderate,,,,,30.8%,
"mal43: recombinant MBP fusion with part of the repetitive domain of HMW glutenin Glu-B1 and hexa-histidine tag (protein, left off: large carriers) RNSGQQLGQGQPGYYPTSQQSEQRQQPGQGKQPGQGQQGYYPTSPQQSGQGQQLGQGQPGYYPTSPQQSGQGQQSGQGQQGYYPTSPQQSGQGQQPGQGQSGYFPTSRQQSGQGQQPGQGQQSGQGQQGQQPGQGQQAYYPTSSQQSRQRQQAGQWQRPGQGQPGYYPTSPQQPGQEQQSGQAQQSGQWQLVYYPTSPQQPGQLQQPAQGQQPAQGQQSAQEQQPGQAQQSGQWQLVYYPTSPQQPGQLQQPAQGQQGYYPTSPQQSGQGQQGYYPTSSRHHHHHH",moderate,,,,,30.8%,
Bet v 1: recombinant protein used for control pre-incubation of sera in the IgE inhibition dot blot (protein) GVFNYETETTSVIPAARLFKAFILDGDNLFPKVAPQAISSVENIEGNGGPGTIKKISFPEGFPFKYVKDRVDEVDHTNFKYNYSVIEGGPIGDTLEKISNEIKIVATPDGGSILKISNKYHTKGDHEVKAEQVKASKEMGETLLRAVESYLLAHSDAYN,,829.0 cpm,377.6 cpm,379.0 cpm,11.5 cpm,,
